Measured values reported in US10131702B2, “Glucagon-GLP-1-GIP triple agonist compounds” (priority 2013, dated 2018).
Read-outs that look alike come from different tables or passages of the source.

T1: human GIP receptor (human, UniProt P48546 22-466)
T1 sequence: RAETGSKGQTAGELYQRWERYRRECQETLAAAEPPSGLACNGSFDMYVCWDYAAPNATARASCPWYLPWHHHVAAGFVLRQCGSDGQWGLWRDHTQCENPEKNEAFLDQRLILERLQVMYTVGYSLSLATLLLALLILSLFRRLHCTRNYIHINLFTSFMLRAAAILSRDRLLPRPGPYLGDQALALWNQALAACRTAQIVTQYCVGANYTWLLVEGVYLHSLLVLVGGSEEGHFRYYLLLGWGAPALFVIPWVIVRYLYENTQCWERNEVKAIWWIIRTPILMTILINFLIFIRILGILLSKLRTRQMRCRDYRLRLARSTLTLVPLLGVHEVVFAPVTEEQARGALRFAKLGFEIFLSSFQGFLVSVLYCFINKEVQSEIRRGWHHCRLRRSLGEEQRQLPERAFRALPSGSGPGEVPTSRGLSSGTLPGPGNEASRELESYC


What was measured:
Assay in all cases: cell-based or functional assay
human GIP receptor [1] = biological target: T1, human GIP receptor
[2] = biological target: T2, human glucagon-like peptide 1 receptor (human, UniProt P43220 24-463)
human glucagon receptor [3] = biological target: T3, human glucagon receptor (human, UniProt P47871 26-477)
human GIP receptor [4] = biological target: T1, human GIP receptor; remark: listed apart in the source
[5] = biological target: T2, human glucagon-like peptide 1 receptor; remark: listed apart in the source
human glucagon receptor [6] = biological target: T3, human glucagon receptor; remark: listed apart in the source

T3 sequence (P47871 26-477): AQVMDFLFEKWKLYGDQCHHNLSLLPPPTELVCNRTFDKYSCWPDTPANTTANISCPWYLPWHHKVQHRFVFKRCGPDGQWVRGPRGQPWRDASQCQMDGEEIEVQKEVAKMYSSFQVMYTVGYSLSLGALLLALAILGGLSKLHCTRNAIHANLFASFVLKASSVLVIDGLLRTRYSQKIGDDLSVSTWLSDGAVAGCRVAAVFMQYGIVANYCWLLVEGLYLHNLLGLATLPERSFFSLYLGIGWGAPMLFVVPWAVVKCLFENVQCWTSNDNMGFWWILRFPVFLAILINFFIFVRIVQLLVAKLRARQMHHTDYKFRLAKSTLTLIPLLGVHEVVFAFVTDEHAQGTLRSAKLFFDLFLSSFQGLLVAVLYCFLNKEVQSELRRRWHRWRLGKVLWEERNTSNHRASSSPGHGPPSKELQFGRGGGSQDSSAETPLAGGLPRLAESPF

Binder	EC50 (cAMP induction) (human GIP receptor [1])	EC50 (cAMP induction) [2]	EC50 (cAMP induction) (human glucagon receptor [3])	EC50 (cAMP induction) (human GIP receptor [4])	EC50 (cAMP induction) [5]	EC50 (cAMP induction) (human glucagon receptor [6])
YAQGTFTSDYSIYLEKKAAKEFVEWLLSA (HELM PEPTIDE1{Y.[Aib].Q.G.T.F.T.S.D.Y.S.I.Y.L.E.K.K.A.A.K.E.F.V.E.W.L.L.S.A.[am]}|PEPTIDE2{[CCCCCCCCCCCCCCCC(=O)[*:2]].[gGlu]}$PEPTIDE1,PEPTIDE2,17:R3-2:R2$$$V2.0; SMILES CCCCCCCCCCCCCCCC(=O)N[C@@H](CCC(=O)NCCCC[C@H](NC(=O)[C@H](CCCCN)NC(=O)[C@H](CCC(=O)O)NC(=O)[C@H](CC(C)C)NC(=O)[C@H](Cc1ccc(O)cc1)NC(=O)[C@@H](NC(=O)[C@H](CO)NC(=O)[C@H](Cc1ccc(O)cc1)NC(=O)[C@H](CC(=O)O)NC(=O)[C@H](CO)NC(=O)[C@@H](NC(=O)[C@H](Cc1ccccc1)NC(=O)[C@@H](NC(=O)CNC(=O)[C@H](CCC(N)=O)NC(=O)C(C)(C)NC(=O)[C@@H](N)Cc1ccc(O)cc1)[C@@H](C)O)[C@@H](C)O)[C@@H](C)CC)C(=O)N[C@@H](C)C(=O)N[C@@H](C)C(=O)N[C@@H](CCCCN)C(=O)N[C@@H](CCC(=O)O)C(=O)N[C@@H](Cc1ccccc1)C(=O)N[C@H](C(=O)N[C@@H](CCC(=O)O)C(=O)N[C@@H](Cc1c[nH]c2ccccc12)C(=O)N[C@@H](CC(C)C)C(=O)N[C@@H](CC(C)C)C(=O)N[C@@H](CO)C(=O)N[C@@H](C)C(N)=O)C(C)C)C(=O)O) [Compound 23]	0.13 nM	0.11 nM	0.14 nM	0.11 nM	0.14 nM	0.14 nM
YAQGTFTSDYSIYLEKKAAKEFVEWLLSA (HELM PEPTIDE1{Y.[Aib].Q.G.T.F.T.S.D.Y.S.I.Y.L.E.K.K.A.A.K.E.F.V.E.W.L.L.S.A.[am]}$$$$V2.0; SMILES CC[C@H](C)[C@H](NC(=O)[C@H](CO)NC(=O)[C@H](Cc1ccc(O)cc1)NC(=O)[C@H](CC(=O)O)NC(=O)[C@H](CO)NC(=O)[C@@H](NC(=O)[C@H](Cc1ccccc1)NC(=O)[C@@H](NC(=O)CNC(=O)[C@H](CCC(N)=O)NC(=O)C(C)(C)NC(=O)[C@@H](N)Cc1ccc(O)cc1)[C@@H](C)O)[C@@H](C)O)C(=O)N[C@@H](Cc1ccc(O)cc1)C(=O)N[C@@H](CC(C)C)C(=O)N[C@@H](CCC(=O)O)C(=O)N[C@@H](CCCCN)C(=O)N[C@@H](CCCCN)C(=O)N[C@@H](C)C(=O)N[C@@H](C)C(=O)N[C@@H](CCCCN)C(=O)N[C@@H](CCC(=O)O)C(=O)N[C@@H](Cc1ccccc1)C(=O)N[C@H](C(=O)N[C@@H](CCC(=O)O)C(=O)N[C@@H](Cc1c[nH]c2ccccc12)C(=O)N[C@@H](CC(C)C)C(=O)N[C@@H](CC(C)C)C(=O)N[C@@H](CO)C(=O)N[C@@H](C)C(N)=O)C(C)C) [Compound 20]	0.047 nM	0.0094 nM	0.057 nM	0.009 nM	0.057 nM	0.057 nM
YAQGTFTSDYSKALDEKAAKEFVEWLLSA (HELM PEPTIDE1{Y.[Aib].Q.G.T.F.T.S.D.Y.S.K.A.L.D.E.K.A.A.K.E.F.V.E.W.L.L.S.A.[am]}$$$$V2.0; SMILES CC(C)C[C@H](NC(=O)[C@H](C)NC(=O)[C@H](CCCCN)NC(=O)[C@H](CO)NC(=O)[C@H](Cc1ccc(O)cc1)NC(=O)[C@H](CC(=O)O)NC(=O)[C@H](CO)NC(=O)[C@@H](NC(=O)[C@H](Cc1ccccc1)NC(=O)[C@@H](NC(=O)CNC(=O)[C@H](CCC(N)=O)NC(=O)C(C)(C)NC(=O)[C@@H](N)Cc1ccc(O)cc1)[C@@H](C)O)[C@@H](C)O)C(=O)N[C@@H](CC(=O)O)C(=O)N[C@@H](CCC(=O)O)C(=O)N[C@@H](CCCCN)C(=O)N[C@@H](C)C(=O)N[C@@H](C)C(=O)N[C@@H](CCCCN)C(=O)N[C@@H](CCC(=O)O)C(=O)N[C@@H](Cc1ccccc1)C(=O)N[C@H](C(=O)N[C@@H](CCC(=O)O)C(=O)N[C@@H](Cc1c[nH]c2ccccc12)C(=O)N[C@@H](CC(C)C)C(=O)N[C@@H](CC(C)C)C(=O)N[C@@H](CO)C(=O)N[C@@H](C)C(N)=O)C(C)C) [Compound 21]	0.18 nM	0.014 nM	0.1 nM	0.015 nM	0.1 nM	0.1 nM
YAQGTFTSDYSIYLDKKAAHDFVEWLLSA (HELM PEPTIDE1{Y.[Aib].Q.G.T.F.T.S.D.Y.S.I.Y.L.D.K.K.A.A.H.D.F.V.E.W.L.L.S.A.[am]}$$$$V2.0; SMILES CC[C@H](C)[C@H](NC(=O)[C@H](CO)NC(=O)[C@H](Cc1ccc(O)cc1)NC(=O)[C@H](CC(=O)O)NC(=O)[C@H](CO)NC(=O)[C@@H](NC(=O)[C@H](Cc1ccccc1)NC(=O)[C@@H](NC(=O)CNC(=O)[C@H](CCC(N)=O)NC(=O)C(C)(C)NC(=O)[C@@H](N)Cc1ccc(O)cc1)[C@@H](C)O)[C@@H](C)O)C(=O)N[C@@H](Cc1ccc(O)cc1)C(=O)N[C@@H](CC(C)C)C(=O)N[C@@H](CC(=O)O)C(=O)N[C@@H](CCCCN)C(=O)N[C@@H](CCCCN)C(=O)N[C@@H](C)C(=O)N[C@@H](C)C(=O)N[C@@H](Cc1c[nH]cn1)C(=O)N[C@@H](CC(=O)O)C(=O)N[C@@H](Cc1ccccc1)C(=O)N[C@H](C(=O)N[C@@H](CCC(=O)O)C(=O)N[C@@H](Cc1c[nH]c2ccccc12)C(=O)N[C@@H](CC(C)C)C(=O)N[C@@H](CC(C)C)C(=O)N[C@@H](CO)C(=O)N[C@@H](C)C(N)=O)C(C)C) [Compound 19]	0.032 nM	0.013 nM	0.024 nM	0.013 nM	0.024 nM	0.024 nM
YAQGTFTSDYSKYLEKKAQKEFVEWLLSA (HELM PEPTIDE1{Y.[Aib].Q.G.T.F.T.S.D.Y.S.K.Y.L.E.K.K.A.Q.K.E.F.V.E.W.L.L.S.A.[am]}$$$$V2.0; SMILES CC(C)C[C@H](NC(=O)[C@H](CC(C)C)NC(=O)[C@H](Cc1c[nH]c2ccccc12)NC(=O)[C@H](CCC(=O)O)NC(=O)[C@@H](NC(=O)[C@H](Cc1ccccc1)NC(=O)[C@H](CCC(=O)O)NC(=O)[C@H](CCCCN)NC(=O)[C@H](CCC(N)=O)NC(=O)[C@H](C)NC(=O)[C@H](CCCCN)NC(=O)[C@H](CCCCN)NC(=O)[C@H](CCC(=O)O)NC(=O)[C@H](CC(C)C)NC(=O)[C@H](Cc1ccc(O)cc1)NC(=O)[C@H](CCCCN)NC(=O)[C@H](CO)NC(=O)[C@H](Cc1ccc(O)cc1)NC(=O)[C@H](CC(=O)O)NC(=O)[C@H](CO)NC(=O)[C@@H](NC(=O)[C@H](Cc1ccccc1)NC(=O)[C@@H](NC(=O)CNC(=O)[C@H](CCC(N)=O)NC(=O)C(C)(C)NC(=O)[C@@H](N)Cc1ccc(O)cc1)[C@@H](C)O)[C@@H](C)O)C(C)C)C(=O)N[C@@H](CO)C(=O)N[C@@H](C)C(N)=O) [Compound 22]	0.18 nM	0.028 nM	0.76 nM	0.03 nM	0.76 nM	0.76 nM
